Laboratory results reported in patent US20090246219A1.

Target: recombinant truncated protein E pE22-160, designated pE(A) (H. influenzae (NTHi strain 772))
Assay: Western blot of pE(A) probed with IgD(λ)

## human IgD(λ) myeloma protein (human IgD myeloma whole serum IgD(λ), The Binding Site, Birmingham, England) (antibody)
  amount of pE(A) detected on Western blot: 0.01 microg
